Molecular target: the molecule itself
Assay: cross-linking

B1: APOBEC4 fused to three C-terminal HA-tags (A4-HA) (natural protein, human, UniProt Q8WW27 1-367, looked up)
chain: MEPIYEEYLANHGTIVKPYYWLSFSLDCSNCPYHIRTGEEARVSLTEFCQIFGFPYGTTFPQTKHLTFYELKTSSGSLVQKGHASSCTGNYIHPESMLFEMNGYLDSAIYNNDSIRHIILYSNNSPCNEANHCCISKMYNFLITYPGITLSIYFSQLYHTEMDFPASAWNREALRSLASLWPRVVLSPISGGIWHSVLHSFISGVSGSHVFQPILTGRALADRHNAYEINAITGVKPYFTDVLLQTKRNPNTKAQEALESYPLNNAFPGQFFQMPSGQLQPNLPPDLRAPVVFVLVPLRDLPPMHMGQNPNKPRNIVRHLNMPQMSFQETKDLGRLPTGRSVEIVEITEQFASSKEADEKKKKKGKK
notes: also called A4-3xHA; pA4-HA; not shown: 3xHA, C-terminal, kept
- stoichiometry N: 2

From paper PMC4889046 (PLoS ONE, 2016)
